Test results published in patent publication US20260078196A1 (TJ BIOPHARMA SHANGHAI, published 2026).
Substitutions are numbered along the chain they refer to.

T1: huMUC16, AA13789-14451
T1 construct: also called MUC16 Antigen (human MUC16 AA13789-14451)
T1 chain: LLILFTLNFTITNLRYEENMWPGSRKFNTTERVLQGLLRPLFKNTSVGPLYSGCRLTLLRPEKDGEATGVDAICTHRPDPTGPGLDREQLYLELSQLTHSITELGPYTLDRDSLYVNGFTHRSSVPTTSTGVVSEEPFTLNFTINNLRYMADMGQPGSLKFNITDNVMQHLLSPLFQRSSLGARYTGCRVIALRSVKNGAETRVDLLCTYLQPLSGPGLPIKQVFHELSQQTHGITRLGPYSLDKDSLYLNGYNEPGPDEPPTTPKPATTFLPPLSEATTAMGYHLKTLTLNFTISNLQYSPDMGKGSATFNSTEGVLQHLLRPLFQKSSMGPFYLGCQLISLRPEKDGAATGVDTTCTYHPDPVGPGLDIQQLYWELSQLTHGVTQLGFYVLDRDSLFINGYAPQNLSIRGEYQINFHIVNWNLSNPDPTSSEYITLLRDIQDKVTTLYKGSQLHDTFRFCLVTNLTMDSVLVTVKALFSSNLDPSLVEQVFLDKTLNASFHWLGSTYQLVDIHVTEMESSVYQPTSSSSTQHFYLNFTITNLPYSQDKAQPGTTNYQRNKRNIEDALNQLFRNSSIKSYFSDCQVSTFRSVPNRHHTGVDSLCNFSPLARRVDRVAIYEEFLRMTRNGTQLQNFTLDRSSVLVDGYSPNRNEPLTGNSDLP

T2: huMUC16, AA14198-14507
T2 chain: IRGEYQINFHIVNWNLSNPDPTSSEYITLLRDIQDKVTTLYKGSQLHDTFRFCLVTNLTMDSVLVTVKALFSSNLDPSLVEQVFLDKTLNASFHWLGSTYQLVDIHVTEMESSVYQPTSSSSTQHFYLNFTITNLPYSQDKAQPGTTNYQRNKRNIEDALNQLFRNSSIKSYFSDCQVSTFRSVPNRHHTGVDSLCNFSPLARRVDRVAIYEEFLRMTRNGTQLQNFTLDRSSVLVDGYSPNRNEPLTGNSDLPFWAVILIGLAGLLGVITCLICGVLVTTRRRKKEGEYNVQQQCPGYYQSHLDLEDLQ

T3: HEK293-MUC16 (13810-14507) (human, UniProt Q8WXI7 13810-14507)
T3 construct: range 13810-14507; also called MUC16 overexpressed HEK293 cells
T3 sequence: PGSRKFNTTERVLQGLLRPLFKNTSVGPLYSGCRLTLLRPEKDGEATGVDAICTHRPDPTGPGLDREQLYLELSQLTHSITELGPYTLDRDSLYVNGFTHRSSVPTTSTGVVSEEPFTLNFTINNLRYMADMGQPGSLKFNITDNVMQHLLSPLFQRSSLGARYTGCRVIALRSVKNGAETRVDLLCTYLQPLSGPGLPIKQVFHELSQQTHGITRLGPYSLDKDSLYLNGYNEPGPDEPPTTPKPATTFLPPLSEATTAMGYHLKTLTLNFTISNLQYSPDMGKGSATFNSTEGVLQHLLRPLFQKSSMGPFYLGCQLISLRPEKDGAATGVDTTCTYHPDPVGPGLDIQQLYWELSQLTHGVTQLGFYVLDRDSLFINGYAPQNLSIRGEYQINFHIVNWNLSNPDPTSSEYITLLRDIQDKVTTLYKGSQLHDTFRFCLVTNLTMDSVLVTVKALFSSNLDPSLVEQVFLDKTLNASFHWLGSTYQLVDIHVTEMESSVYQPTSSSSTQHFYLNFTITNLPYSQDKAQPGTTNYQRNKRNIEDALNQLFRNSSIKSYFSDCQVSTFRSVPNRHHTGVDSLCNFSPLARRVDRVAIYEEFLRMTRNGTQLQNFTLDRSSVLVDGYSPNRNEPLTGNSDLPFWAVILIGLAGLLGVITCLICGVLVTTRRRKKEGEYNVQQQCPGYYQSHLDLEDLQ

B1: D20 (antibody, V domains shown)
VH: QVQLVQSGAEVKKPGSSVKVSCKASGGTFSSYAISWVRQAPGQGLEWMGGIIPIFGTANYAQKFQGRVTITADESTSTAYMELSSLRSEDTAVYYCASTPELLWFGELGGAYYFDYWGQGTLVTVSS
VL: NIQLTQSPSTLSASVGDRVTITCRASESISSWLAWYQQKPGEAPKLLIYKASTLENGVPSRFSGSGSETEFTLTISSLQPDDFATYYCQQYRSHWSSTFGPGTKVDIK
notes: Anti-MUC16 mAb
B2: D1 (antibody, V domains shown)
VH: QVQLVQSGAEVKKPGSSVKVSCKASGGTFSSYAISWVRQAPGQGLEWMGGIIPIFGTANYAQKFQGRVTITADESTSTAYMELSSLRSEDTAVYYCARAPMVRGVPPTPYYYYYGMDVWGQGTTVTVSS
VL: EIVLTQSPATLSLSPGERATLSCRASQSVSNYLAWYQQKPGQAPRLLIYDASNRATGIPARFSGSGSGTDFTLTISSLEPEDFAVYYCQQRSNWPSFGQGTKVEIK
notes: Anti-MUC16 mAb
B3: 4-1BB VHH (VHH)
VHH: QVQLQESGGGLVQPGGSLRLSCAASGYTYSSNCMGWFRQAPGKGLEGVAVICTGGGSPSYADSVKGRFTISRDNAKNTLYLQMNSLRAEDTAVYYCAADLLRAGTPLSSYEFNYWGQGTLVTVSS
B4: 4B-10C9 (second entry of Table 6A, with 9C9 VH and 9C9 VL) (bispecific antibody, human IgG1, kappa)
heavy: not shown
light: DIVLTQSPAITAASLGQKVTITCSASSSVTYMHWYQQKSGTSPKLWIYDISKLASGVPARFSGSGPGTSYSLTISTMEAEDAAIYYCQQWNYPLMTFGGGTKLEIKRTVAAPSVFIFPPSDEQLKSGTASVVCLLNNFYPREAKVQWKVDNALQSGNSQESVTEQDSKDSTYSLSSTLTLSKADYEKHKVYACEVTHQGLSSPVTKSFNRGEC
notes: Label 4B-10C9 is printed twice; this entry holds the 9C9 variable domains and is probably meant as 4B-9C9; also called 10C9 IgG x 4-1BB VHH (label as printed)
B5: C73 (antibody, V domains shown)
VH: QVQLMQSGAEVKKPGSSVKVSCKASGGTFSSYAISWVRQAPGQGLEWMGGIIPIFGTANYAQKFQGRVTITADESTSTAYMELSSLRSEDTAVYYCAREPPLSNYGDYATEQYYYGMDVWGQGTLVTVSS
VL: not shown
notes: Anti-MUC16 mAb
B6: 4B-3C5 (bispecific antibody, human IgG1, kappa)
heavy: not shown
light: DIKMTQSPSSMYASLGERVSITCRASQDIYSYLSWFQQKPGKSPKTLIYRANRLVDGVPSRFSGSGSGQDYSLTISSLEYEDMGIYYCLQYDEFPYTFGGGTKLEIKRTVAAPSVFIFPPSDEQLKSGTASVVCLLNNFYPREAKVQWKVDNALQSGNSQESVTEQDSKDSTYSLSSTLTLSKADYEKHKVYACEVTHQGLSSPVTKSFNRGEC
notes: Chimeric ROR1 x 4-1BB BsAb; also called 3C5 IgG x 4-1BB VHH
B7: D30 (antibody, V domains shown)
VH: QVQLVQSGAEVKKPGSSVKVSCKASGGTFSSYAISWVRQAPGQGLEWMGGIIPIFGTANYAQKFQGRVTITADESTSTAYMELSSLRSEDTAVYYCARANFNIYYYYYGMDVWGQGTLVTVSS
VL: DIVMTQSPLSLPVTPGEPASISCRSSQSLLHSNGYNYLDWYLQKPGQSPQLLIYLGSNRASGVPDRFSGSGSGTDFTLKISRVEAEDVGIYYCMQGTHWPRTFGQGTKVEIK
notes: Anti-MUC16 mAb
B8: 4B-8F2 (bispecific antibody, human IgG1, kappa)
heavy: not shown
light: DVVMTQTPLTLSVTIGQPASISCKSSQSLLHSNGKTYLNWLLQRPGQSPNLLIYLVSKLESGVPDRFSGSGSGTDFTLKISRVEAEDLGVYYCLQATYFPYTFGSGTKLEIKRTVAAPSVFIFPPSDEQLKSGTASVVCLLNNFYPREAKVQWKVDNALQSGNSQESVTEQDSKDSTYSLSSTLTLSKADYEKHKVYACEVTHQGLSSPVTKSFNRGEC
notes: Chimeric ROR1 x 4-1BB BsAb; also called 8F2 IgG x 4-1BB VHH
B9: 4B-10C9 (bispecific antibody, human IgG1, kappa)
heavy: not shown
light: B8 light with T14A, S32I, N50K, Y98H
notes: also called 10C9 IgG x 4-1BB VHH
B10: D46 (antibody, V domains shown)
VH: QVQLVQSGAEVKKPGSSVKVSCKASGGTFSSYAISWVRQAPGQGLEWMGRIIPIFGIANYAQKFQGRVTITADKSTSTAYMELSSLRSEDTAVYYCAITGDYDILTGSYYYGMDVWGQGTTVTVSS
VL: NIQLTQSPSSLSASVGDRVTITCRASQGIRNDLGWYQQKPGKAPKLLIYAASSLQSGVPSRFSGSGSGTDFTLTISSLQPEDFATYYCLQDYNYPFTFGPGTKVDIK
notes: Anti-MUC16 mAb
B11: C25 (antibody, V domains shown)
VH: EVQLLESGAEVKKPGSSVKVSCKASGGTFSSYAISWVRQAPGQGLEWMGGIIPIFGTANYAQKFQGRVTITADESTSTAYMELSSLRSEDTAVYYCARDSRKYYYDSSGPALWGFDAFDIWGQGTMVTVSS
VL: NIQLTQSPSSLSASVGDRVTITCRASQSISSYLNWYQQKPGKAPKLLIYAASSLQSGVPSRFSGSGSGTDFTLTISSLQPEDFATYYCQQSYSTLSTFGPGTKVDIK
notes: Anti-MUC16 mAb from a human naive Fab phage library; also called MUC16-C25

Key:
human MUC16 on cells [1] = target: T4, human MUC16 on cells (human, UniProt Q8WXI7 1-14507); assay: flow cytometry (GMFI) on OVCAR3 cells, nM is the unit of the x axis Log10[Ab] (nM); curve without upper plateau
T4 construct: whole, on cells; also called huMUC16; MUC16 on OVCAR3 and SNU216 cells

huMUC16, AA13789-14451 = target: T1, huMUC16, AA13789-14451; assay: binding ELISA on huMUC16 AA13789-14451
huMUC16, AA14198-14507 = target: T2, huMUC16, AA14198-14507; assay: binding ELISA on huMUC16 AA14198-14507
4-1BB on cells = target: T5, 4-1BB on cells (human, UniProt Q07011 24-255); assay: flow cytometry (gMFI) on HEK293-h4-1BB cells
T5 construct: Species is stated as human for section 2.2 as a whole, not for each cell line; also called HEK293 cells expressing 4-1BB; 4-1BB overexpressed HEK293 cell

ROR1 on cells = target: T6, ROR1 on cells (UniProt Q01973 30-937); assay: flow cytometry (gMFI) on A549 cells
T6 construct: whole, on cells; also called ROR1 endogenous expressed tumor cell A549; ROR1-positive tumor cell lines

human MUC16 on cells [2] = target: T4, human MUC16 on cells; assay: flow cytometry (GMFI) on OVCAR3 cells, nM is the unit of the x axis Log10[Ab] (nM)
human MUC16 on cells [3] = target: T4, human MUC16 on cells; assay: flow cytometry (MFI GeoMean) on OVCAR3 cells, nM is the unit of the x axis Log10[Ab] (nM)
human MUC16 on cells [4] = target: T4, human MUC16 on cells; assay: flow cytometry (MFI GeoMean) on SNU216 cells, nM is the unit of the x axis Log10[Ab] (nM)
[5] = target: T3, HEK293-MUC16 (13810-14507); assay: flow cytometry (MFI GeoMean) on HEK293-MUC16 (13810-14507) cells, nM is the unit of the x axis Log10[Ab] (nM)
human MUC16 = target: T7, human MUC16 (human); assay: binding kinetics, sensorgrams in RU in FIG. 14B, model printed: Kinetics 1:1; form of the MUC16 antigen not given
T7 construct: also called MUC16 antigen of the kinetic assay

T5 sequence (Q07011 24-255): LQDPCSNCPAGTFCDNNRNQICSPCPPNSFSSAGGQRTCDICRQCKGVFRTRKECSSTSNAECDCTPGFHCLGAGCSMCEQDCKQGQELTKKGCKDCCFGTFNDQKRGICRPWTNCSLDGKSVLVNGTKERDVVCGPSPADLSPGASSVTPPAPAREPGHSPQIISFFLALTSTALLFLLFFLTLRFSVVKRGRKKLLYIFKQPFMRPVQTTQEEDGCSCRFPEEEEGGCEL

Row | Binder | binding result (huMUC16, AA13789-14451) | binding result (huMUC16, AA14198-14507) | EC50 (read off the curve) (4-1BB on cells) [nM] | EC50 (read off the curve) (ROR1 on cells) [nM] | further results
1 | B1 | binds | no binding (tested: 100 nM) |  |  | EC50 (human MUC16 on cells [1]): 14.1 nM
2 | B2 | binds | no binding (tested: 100 nM) |  |  | EC50 (human MUC16 on cells [1]): 27.6 nM
3 | B3 |  |  | ~0.2 |  | 
4 | B4 |  |  | ~0.3 | ~0.2 | 
5 | B5 | binds | no binding (tested: 100 nM) |  |  | EC50 (human MUC16 on cells [1]): 50.1 nM
6 | B6 |  |  | ~0.1 | ~0.08 | 
7 | B7 | binds | no binding (tested: 100 nM) |  |  | EC50 (human MUC16 on cells [2]): 0.389 nM; EC50 (human MUC16 on cells [3]): 0.38 nM; EC50 (human MUC16 on cells [4]): 0.125 nM; EC50 [5]: 0.277 nM
8 | B8 |  |  | ~0.2 | ~0.03 | 
9 | B9 |  |  | ~0.3 | ~0.3 | 
10 | B10 | binds | no binding (tested: 100 nM) |  |  | EC50 (human MUC16 on cells [2]): 0.347 nM
11 | B11 | binds | no binding (tested: 100 nM) |  |  | EC50 (human MUC16 on cells [2]): 0.179 nM; Kd (human MUC16): 26.9 nM; koff (human MUC16): 0.00697 s⁻¹; kon (human MUC16): 260000 M⁻¹ s⁻¹; EC50 (human MUC16 on cells [3]): 0.242 nM; EC50 (human MUC16 on cells [4]): 0.0978 nM; EC50 [5]: 0.156 nM
